The record followed here is patent US20140072613A1, “Compositions and Methods for Treating Cutaneous Scarring” (priority 2012, published 2014).

Assay in all cases: cell-based or functional assay
Test [1] deals with FGFR1(h) (human) (UniProt P11362).
Test [2] addresses T1, PrKX(h) (human) (UniProt P51817).
T1 sequence (looked up): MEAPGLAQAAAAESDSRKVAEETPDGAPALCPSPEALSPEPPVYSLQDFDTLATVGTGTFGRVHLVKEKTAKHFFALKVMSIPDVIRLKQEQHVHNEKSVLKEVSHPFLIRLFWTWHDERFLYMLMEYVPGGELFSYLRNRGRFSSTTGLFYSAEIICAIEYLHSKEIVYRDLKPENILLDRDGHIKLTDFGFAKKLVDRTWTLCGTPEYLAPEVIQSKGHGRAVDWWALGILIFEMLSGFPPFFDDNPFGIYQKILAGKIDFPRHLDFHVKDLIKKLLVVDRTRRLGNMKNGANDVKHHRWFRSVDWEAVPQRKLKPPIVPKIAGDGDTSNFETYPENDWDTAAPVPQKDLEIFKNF

Test [3] concerns the target T2, EphA1(h) (human) (UniProt P21709).
T2 sequence (looked up): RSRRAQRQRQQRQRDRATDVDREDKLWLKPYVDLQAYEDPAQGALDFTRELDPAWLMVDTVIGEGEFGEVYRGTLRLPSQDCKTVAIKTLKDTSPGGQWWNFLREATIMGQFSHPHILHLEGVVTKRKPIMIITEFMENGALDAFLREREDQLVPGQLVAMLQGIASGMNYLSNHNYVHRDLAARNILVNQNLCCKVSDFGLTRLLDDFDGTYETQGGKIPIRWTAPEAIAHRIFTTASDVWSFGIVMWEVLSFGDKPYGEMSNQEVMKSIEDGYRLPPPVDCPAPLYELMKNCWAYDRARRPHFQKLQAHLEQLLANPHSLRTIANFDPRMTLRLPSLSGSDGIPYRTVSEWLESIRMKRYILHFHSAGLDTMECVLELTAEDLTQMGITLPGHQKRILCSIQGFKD

Test [4] has as its target PKBα(h) (human) (UniProt P31749).
Test [5] addresses Met(D1246H)(h) (human) (UniProt P08581).
The target in test [6] is T3, Bmx(h) (human) (UniProt P51813).
T3 sequence (looked up): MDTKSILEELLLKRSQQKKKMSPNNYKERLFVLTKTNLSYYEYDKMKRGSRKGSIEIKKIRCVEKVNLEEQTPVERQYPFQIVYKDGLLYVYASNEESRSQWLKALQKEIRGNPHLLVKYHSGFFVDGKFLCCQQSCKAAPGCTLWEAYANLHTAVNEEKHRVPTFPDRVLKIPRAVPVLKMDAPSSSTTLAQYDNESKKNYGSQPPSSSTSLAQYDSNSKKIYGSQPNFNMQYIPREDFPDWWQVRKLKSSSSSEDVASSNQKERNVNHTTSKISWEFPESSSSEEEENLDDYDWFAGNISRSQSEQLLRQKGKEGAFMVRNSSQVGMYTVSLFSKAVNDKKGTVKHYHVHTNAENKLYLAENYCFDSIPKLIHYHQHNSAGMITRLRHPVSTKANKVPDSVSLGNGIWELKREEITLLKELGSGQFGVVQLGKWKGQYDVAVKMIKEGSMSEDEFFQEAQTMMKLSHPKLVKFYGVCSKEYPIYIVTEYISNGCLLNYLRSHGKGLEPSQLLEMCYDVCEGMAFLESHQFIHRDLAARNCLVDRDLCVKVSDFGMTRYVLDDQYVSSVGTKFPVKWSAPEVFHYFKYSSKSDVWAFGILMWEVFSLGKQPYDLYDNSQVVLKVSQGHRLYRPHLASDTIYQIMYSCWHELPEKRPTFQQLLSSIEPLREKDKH

Test [7] deals with Rsk4(h) (human) (UniProt Q9UK32).
Test [8] deals with T4, Aurora-A(h) (human) (UniProt O14965).
T4 sequence (looked up): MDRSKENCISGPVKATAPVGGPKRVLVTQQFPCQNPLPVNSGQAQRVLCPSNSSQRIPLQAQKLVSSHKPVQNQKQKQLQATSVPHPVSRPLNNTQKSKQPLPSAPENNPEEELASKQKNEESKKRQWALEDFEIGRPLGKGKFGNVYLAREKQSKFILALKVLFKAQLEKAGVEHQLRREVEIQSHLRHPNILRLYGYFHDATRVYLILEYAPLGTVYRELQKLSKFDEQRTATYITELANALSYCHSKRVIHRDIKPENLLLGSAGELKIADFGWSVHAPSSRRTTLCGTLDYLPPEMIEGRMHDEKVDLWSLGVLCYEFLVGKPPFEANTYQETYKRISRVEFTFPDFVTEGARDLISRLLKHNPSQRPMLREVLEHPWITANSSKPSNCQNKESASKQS

Test [9] concerns the target BRK(h) (human) (UniProt Q13882).
The target in test [10] is T5, NLK(h) (human) (UniProt Q9UBE8).
T5 sequence (looked up): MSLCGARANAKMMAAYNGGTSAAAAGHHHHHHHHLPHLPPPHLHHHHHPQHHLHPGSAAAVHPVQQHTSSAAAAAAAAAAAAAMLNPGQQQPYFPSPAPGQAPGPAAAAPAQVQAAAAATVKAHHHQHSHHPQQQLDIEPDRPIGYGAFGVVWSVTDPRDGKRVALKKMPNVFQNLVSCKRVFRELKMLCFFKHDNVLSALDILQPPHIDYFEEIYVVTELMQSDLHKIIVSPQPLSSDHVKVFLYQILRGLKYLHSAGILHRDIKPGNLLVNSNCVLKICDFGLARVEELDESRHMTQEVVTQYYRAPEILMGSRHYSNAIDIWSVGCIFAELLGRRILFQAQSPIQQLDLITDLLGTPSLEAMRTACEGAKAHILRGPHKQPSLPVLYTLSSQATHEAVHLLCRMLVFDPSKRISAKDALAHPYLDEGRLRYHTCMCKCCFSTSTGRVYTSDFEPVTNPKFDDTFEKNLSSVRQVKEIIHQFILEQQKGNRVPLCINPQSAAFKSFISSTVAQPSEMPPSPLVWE

The target in test [11] is VRK2(h) (human) (UniProt Q86Y07).
Test [12] concerns the target CDK6/cyclinD3(h) (human) (UniProt Q00534).
Test [13] addresses JAK3(h) (human) (UniProt P52333).

Rsk4(h) (human), sequence (Q9UK32 whole entry): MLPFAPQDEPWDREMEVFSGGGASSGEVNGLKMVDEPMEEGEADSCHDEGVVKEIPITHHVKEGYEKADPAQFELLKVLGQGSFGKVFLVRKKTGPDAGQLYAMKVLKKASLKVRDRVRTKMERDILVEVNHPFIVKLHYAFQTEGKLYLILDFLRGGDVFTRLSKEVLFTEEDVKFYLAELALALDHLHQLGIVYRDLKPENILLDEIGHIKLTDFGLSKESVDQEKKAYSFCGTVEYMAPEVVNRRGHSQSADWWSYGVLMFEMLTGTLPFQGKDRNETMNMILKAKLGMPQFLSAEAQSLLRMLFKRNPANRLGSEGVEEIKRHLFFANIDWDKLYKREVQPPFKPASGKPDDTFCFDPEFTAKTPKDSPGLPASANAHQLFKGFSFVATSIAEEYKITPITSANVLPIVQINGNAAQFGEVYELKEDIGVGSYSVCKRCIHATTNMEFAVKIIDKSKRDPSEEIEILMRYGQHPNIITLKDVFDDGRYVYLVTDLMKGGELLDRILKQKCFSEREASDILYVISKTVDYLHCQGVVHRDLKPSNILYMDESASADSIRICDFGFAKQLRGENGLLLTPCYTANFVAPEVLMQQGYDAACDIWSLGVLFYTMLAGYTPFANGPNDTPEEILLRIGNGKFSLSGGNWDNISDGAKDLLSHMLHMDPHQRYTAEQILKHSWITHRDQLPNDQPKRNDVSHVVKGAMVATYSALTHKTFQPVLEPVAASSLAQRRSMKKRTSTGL
VRK2(h) (human), sequence (Q86Y07 whole entry): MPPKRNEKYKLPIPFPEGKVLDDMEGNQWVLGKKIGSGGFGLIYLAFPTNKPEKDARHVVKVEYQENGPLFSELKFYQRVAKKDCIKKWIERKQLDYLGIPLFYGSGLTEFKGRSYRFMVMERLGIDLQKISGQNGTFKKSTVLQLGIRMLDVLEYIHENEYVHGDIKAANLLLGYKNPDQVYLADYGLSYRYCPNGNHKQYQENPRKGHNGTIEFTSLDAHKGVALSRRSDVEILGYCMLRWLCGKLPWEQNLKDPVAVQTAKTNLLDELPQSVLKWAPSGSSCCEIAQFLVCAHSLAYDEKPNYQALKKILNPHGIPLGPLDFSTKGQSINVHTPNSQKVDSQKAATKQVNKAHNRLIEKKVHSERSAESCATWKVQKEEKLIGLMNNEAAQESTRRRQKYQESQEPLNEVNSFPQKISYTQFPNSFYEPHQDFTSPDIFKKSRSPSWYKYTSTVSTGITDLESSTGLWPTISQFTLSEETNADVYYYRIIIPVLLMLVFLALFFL
FGFR1(h) (human), sequence (P11362 456-765 limits assumed): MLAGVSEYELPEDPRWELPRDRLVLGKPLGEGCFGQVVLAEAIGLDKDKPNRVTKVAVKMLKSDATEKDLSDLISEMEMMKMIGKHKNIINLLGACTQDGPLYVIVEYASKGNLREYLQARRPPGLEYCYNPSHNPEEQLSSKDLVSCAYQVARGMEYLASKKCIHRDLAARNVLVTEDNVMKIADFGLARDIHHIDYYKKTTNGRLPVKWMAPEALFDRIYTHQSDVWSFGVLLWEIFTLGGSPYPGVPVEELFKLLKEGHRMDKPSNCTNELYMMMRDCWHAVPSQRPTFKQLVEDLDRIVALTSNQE
PKBα(h) (human), sequence (P31749 whole entry): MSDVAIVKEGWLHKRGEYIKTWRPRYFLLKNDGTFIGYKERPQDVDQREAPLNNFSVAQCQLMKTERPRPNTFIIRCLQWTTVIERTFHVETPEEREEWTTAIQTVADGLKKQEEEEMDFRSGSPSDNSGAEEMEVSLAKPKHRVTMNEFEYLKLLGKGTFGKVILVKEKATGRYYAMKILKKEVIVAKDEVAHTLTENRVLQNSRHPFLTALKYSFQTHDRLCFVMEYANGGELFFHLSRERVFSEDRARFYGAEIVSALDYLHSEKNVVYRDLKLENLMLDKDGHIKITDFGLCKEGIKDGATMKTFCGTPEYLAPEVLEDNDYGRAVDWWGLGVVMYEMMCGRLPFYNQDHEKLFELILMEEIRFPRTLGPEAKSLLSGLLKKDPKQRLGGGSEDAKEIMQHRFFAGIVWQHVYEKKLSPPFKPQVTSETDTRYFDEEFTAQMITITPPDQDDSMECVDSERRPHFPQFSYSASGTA
CDK6/cyclinD3(h) (human), sequence (Q00534 whole entry, chain 1 of 2): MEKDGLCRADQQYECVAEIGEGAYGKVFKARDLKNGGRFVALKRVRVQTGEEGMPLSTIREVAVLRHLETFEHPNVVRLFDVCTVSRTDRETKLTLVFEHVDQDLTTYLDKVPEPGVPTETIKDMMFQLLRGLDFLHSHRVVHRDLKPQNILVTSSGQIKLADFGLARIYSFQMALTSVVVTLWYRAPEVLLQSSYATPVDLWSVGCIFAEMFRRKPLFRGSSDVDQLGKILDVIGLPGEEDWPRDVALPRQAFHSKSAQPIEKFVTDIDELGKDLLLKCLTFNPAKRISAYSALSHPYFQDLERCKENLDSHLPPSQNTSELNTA
CDK6/cyclinD3(h) (human), sequence (P30281 whole entry, chain 2 of 2, further chain): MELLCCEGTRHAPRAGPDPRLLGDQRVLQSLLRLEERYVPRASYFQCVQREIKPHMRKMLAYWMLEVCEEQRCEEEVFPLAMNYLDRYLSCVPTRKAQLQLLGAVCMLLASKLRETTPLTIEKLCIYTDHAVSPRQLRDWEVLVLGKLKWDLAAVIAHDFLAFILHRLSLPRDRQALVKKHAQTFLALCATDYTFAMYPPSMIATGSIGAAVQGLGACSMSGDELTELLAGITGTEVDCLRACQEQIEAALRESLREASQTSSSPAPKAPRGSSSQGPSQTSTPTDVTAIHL
JAK3(h) (human), sequence (P52333 781-1124 limits assumed): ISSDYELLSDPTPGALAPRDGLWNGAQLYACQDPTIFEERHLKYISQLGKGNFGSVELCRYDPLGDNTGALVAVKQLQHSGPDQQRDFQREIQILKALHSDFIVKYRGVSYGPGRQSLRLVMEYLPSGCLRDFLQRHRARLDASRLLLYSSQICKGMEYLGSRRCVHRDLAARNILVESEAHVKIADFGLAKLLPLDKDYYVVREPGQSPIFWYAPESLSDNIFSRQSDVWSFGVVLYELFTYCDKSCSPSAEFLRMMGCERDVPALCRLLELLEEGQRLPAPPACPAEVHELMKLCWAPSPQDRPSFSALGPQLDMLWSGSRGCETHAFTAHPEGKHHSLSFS

As to MMI-0500 (peptide), the % activity, 100 µM in test [1] is 18%; in test [2], 57%; in test [3], 40%; in [4], 30%; in test [5], 150%; in test [6] it was 45%. Moreover, the % activity, 100 µM in [7] stood at 29%; in test [8] it was 110%; in [9] it was 41%; in test [10], 19%; in test [11], 169%; in test [12], 23%. The % activity, 100 µM in test [13] came to 95%.
